Data from patent EP1068241B1.

Key:
[1] = target: FcγRI α subunit-GST fusion (UniProt P12314); assay: ELISA on coated FcγRI α subunit-GST fusion, IgG at 10 µg/ml
[2] = target: FcγRIIIa α subunit ECD-6His-GST fusion protein (UniProt P08637); assay: ELISA, E27:chimeric IgE:VEGF immune complex on coated receptor
[3] = target: FcγRIIa α subunit ECD-6His-GST fusion protein (UniProt P12318); assay: as above
[4] = target: FcγRIIb α subunit ECD-6His-GST fusion protein (UniProt P31994); assay: as above
human C1q (human) [5] = target: human C1q (human) (UniProt P02745); assay: C1q binding ELISA
Chain of human C1q (human) (P02745 23-245 limits assumed, chain 1 of 3): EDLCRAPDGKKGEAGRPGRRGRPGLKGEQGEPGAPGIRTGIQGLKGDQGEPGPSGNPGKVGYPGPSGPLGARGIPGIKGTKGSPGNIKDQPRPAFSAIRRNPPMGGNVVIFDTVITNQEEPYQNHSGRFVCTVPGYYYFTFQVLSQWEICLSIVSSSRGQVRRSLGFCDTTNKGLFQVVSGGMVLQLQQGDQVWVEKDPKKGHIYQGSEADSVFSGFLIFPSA
Chain of human C1q (human) (P02746 28-253 limits assumed, chain 2 of 3, further chain): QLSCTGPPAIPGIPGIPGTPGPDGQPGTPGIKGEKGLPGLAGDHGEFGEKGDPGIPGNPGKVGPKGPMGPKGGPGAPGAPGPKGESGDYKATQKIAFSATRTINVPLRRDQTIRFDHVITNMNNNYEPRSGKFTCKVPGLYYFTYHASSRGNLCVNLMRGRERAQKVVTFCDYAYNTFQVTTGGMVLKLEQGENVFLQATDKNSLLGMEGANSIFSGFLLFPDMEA
Chain of human C1q (human) (P02747 29-245 limits assumed, chain 3 of 3, further chain): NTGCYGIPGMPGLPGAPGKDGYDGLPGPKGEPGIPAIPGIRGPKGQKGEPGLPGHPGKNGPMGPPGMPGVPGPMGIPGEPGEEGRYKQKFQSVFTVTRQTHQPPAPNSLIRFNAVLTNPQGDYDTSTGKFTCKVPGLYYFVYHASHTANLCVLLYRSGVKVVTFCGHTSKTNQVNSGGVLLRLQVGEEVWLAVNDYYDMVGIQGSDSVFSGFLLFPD

CD20 antigen = CD20 antigen (UniProt P11836); assay: flow cytometry on WIL2-S cells
Chain of CD20 antigen (P11836 whole entry): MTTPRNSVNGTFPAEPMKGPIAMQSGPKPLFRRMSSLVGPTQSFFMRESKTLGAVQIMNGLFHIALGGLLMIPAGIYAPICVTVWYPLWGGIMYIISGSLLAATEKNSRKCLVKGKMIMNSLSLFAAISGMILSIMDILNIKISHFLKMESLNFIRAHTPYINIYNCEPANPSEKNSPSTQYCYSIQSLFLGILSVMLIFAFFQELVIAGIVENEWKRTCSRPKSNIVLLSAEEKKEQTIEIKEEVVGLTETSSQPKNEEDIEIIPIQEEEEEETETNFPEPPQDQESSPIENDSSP

human C1q (human) [6] = target: human C1q (human) (UniProt P02745); assay: cell-based or functional assay

Chain of FcγRIIIa α subunit ECD-6His-GST fusion protein (P08637 other isoform, or with tags, fused parts or gaps): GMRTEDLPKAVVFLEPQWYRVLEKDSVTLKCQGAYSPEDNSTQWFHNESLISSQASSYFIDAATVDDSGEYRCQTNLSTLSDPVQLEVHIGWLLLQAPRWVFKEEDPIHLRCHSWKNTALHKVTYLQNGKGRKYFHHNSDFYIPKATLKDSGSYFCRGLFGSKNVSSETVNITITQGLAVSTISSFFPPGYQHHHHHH
Chain of FcγRI α subunit-GST fusion (P12314 other isoform, or with tags, fused parts or gaps): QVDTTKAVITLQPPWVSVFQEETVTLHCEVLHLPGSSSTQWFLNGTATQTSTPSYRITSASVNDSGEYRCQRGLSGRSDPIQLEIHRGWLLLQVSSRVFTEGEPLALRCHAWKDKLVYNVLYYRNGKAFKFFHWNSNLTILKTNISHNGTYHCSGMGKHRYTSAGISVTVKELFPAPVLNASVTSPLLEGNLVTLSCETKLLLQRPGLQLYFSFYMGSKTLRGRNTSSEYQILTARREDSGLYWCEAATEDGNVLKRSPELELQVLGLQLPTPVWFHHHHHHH
Chain of FcγRIIa α subunit ECD-6His-GST fusion protein (P12318 other isoform, or with tags, fused parts or gaps): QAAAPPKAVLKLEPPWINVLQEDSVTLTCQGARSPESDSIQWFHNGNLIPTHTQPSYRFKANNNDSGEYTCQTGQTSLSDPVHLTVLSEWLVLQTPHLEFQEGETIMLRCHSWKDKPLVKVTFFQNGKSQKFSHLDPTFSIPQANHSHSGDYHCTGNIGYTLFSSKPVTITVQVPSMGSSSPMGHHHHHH
Chain of FcγRIIb α subunit ECD-6His-GST fusion protein (P31994 other isoform, or with tags, fused parts or gaps): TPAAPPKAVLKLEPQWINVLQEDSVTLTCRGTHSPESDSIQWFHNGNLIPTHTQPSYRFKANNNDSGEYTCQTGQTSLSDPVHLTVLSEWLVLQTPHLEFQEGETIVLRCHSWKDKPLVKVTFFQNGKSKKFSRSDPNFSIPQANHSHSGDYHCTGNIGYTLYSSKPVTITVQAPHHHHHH

Substance | binding as percentage of the wild type [1] [%] | binding as percentage of the wild type [2] [%] | binding as percentage of the wild type [3] [%] | binding as percentage of the wild type [4] [%] | fold lower binding than wild type C2B8 (human C1q (human) [5]) [fold] | EC50 as percentage of the wild type (CD20 antigen) [%] | CDC (percentage of the wild type) (human C1q (human) [6]) [%] | decrease in binding against wild type C2B8 (human C1q (human) [5]) [%]
E27 anti-IgE antibody mutant P331A | 74 | 73 | 86 | 58 | – | – | – | –
E27 anti-IgE antibody mutant P329A | 104 | 85 | – | – | – | – | – | –
C2B8 mutant P331A (antibody) | – | – | – | – | 60 | 103 | – | –
E27 anti-IgE antibody mutant E318A | 93 | 104 | 113 | 106 | – | – | – | –
C2B8 mutant P329A (antibody) | – | – | – | – | – | 112 | – | –
E27 anti-IgE antibody mutant K320A | 102 | 72 | – | 83 | – | – | – | –
C2B8 mutant K320A (antibody) | – | – | – | – | – | 102 | 108 | –
E27 anti-IgE antibody mutant K322A | 90 | 90 | 109 | 101 | – | – | – | –
wild type E27 anti-IgE antibody | 100 | 100 | 100 | 100 | – | – | – | –
C2B8 mutant E318A (antibody) | – | – | – | – | – | 89 | 108 | 30
